Measurements as given in patent publication US20230406935A1 (F STAR THERAPEUTICS, published 2023).
Positions count from the first letter of the chain named.

B1: FS17-33-157AA/HELD1.3 (bispecific antibody)
chain 1: QVQLQESGPGLVRPSQTLSLTCTVSGSTFSGYGVNWVRQPPGRGLEWIGMIWGDGNTDYNSALKSRVTMLVDTSKNQFSLRLSSVTAADTAVYYCARERDYRLDYWGQGSLVTVSSASTKGPSVFPLAPSSKSTSGGTAALGCLVKDYFPEPVTVSWNSGALTSGVHTFPAVLQSSGLYSLSSVVTVPSSSLGTQTYICNVNHKPSNTKVDKKVEPKSCDKTHTCPPCPAPEAAGGPSVFLFPPKPKDTLMISRTPEVTCVVVDVSHEDPEVKFNWYVDGVEVHNAKTKPREEQYNSTYRVVSVLTVLHQDWLNGKEYKCKVSNKALPAPIEKTISKAKGQPREPQVYTLPPSRDEEGYWVSLTCLVKGFYPSDIAVEWESNGEPQYWAKTTPPVLDSDGSFFLYSKLTVSNWRWQLDDFSCSVMHEALHNHYTQKSLSLSPGK
chain 2: DIQMTQSPASLSASVGETVTITCRASGNIHNYLAWYQQKQGKSPQLLVYNAKTLADGVPSRFSGSGSGTQYSLKINSLQPEDFGSYYCQHFWSTPRTFGGGTKLEIKRTVAAPSVFIFPPSDEQLKSGTASVVCLLNNFYPREAKVQWKVDNALQSGNSQESVTEQDSKDSTYSLSSTLTLSKADYEKHKVYACEVTHQGLSSPVTKSFNRGEC
B2: FS17-33-159AA/HELD1.3 (bispecific antibody)
chain 1: B1 chain 1 with E357H
chain 2: B1 chain 2
B3: FS17-33-161AA/HELD1.3 (bispecific antibody)
chain 1: B1 chain 1 with E357L
chain 2: B1 chain 2
B4: FS17-33-163AA/HELD1.3 (bispecific antibody)
chain 1: B1 chain 1 with E357F
chain 2: B1 chain 2
B5: FS17-33-166AA/HELD1.3 (bispecific antibody)
chain 1: B1 chain 1 with E357Y
chain 2: B1 chain 2
B6: FS17-33-235AA/HELD1.3 (bispecific antibody)
chain 1: B1 chain 1 with E357S, N412A
chain 2: B1 chain 2
B7: FS17-33-239AA/HELD1.3 (bispecific antibody)
chain 1: B1 chain 1 with E357S, N412Q
chain 2: B1 chain 2
B8: FS17-33-241AA/HELD1.3 (bispecific antibody)
chain 1: B1 chain 1 with E357S, N412H
chain 2: B1 chain 2
B9: FS17-33-266AA/HELD1.3 (bispecific antibody)
chain 1: B1 chain 1 with E357S, Q416R
chain 2: B1 chain 2
B10: FS17-33-271AA/HELD1.3 (bispecific antibody)
chain 1: B1 chain 1 with E357S, Q416H
chain 2: B1 chain 2
B11: FS17-33-277AA/HELD1.3 (bispecific antibody)
chain 1: B1 chain 1 with E357S, Q416S
chain 2: B1 chain 2
B12: FS17-33-316AA/HELD1.3 (bispecific antibody)
chain 1: B1 chain 1 with E357S, D419A
chain 2: B1 chain 2

Key:
[1] = molecular target: Human PD-L1 expressed on cells (human, UniProt Q9NZQ7 19-290); assay: cell-based or functional assay
Chain of Human PD-L1 expressed on cells (Q9NZQ7 19-290 limits assumed): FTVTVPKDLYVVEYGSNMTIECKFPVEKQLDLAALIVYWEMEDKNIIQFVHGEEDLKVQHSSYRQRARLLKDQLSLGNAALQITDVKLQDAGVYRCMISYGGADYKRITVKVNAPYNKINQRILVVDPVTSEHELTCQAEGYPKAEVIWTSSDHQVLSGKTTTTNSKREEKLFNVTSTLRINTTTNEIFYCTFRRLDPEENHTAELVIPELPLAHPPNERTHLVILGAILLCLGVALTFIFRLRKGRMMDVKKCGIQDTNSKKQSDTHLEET

[2] = molecular target: T1, Monomeric His-tagged human PD-L1 (Acro biosystems PD1-H5229) (human, UniProt Q9NZQ7 19-238); assay: off-rate on PD-L1, mock mAb^2; instrument not given
T1 construct: also called hPD-L1-his; PD-L1-his
T1 sequence (Q9NZQ7 19-238 limits assumed): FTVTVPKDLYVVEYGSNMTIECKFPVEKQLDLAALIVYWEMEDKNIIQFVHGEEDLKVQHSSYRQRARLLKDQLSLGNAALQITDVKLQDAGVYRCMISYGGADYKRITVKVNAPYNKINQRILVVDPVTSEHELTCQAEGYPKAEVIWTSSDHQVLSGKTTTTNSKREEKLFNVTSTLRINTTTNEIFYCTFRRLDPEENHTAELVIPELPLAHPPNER

Row | Binder | DO11.10 EC50 [1] | koff [2]
1 | B1 | 0.481 nM | 0.000559 s⁻¹
2 | B2 | 0.263 nM | 0.000427 s⁻¹
3 | B3 | 0.453 nM | 0.000578 s⁻¹
4 | B4 | 0.37 nM | 0.000372 s⁻¹
5 | B5 | 0.238 nM | 0.000523 s⁻¹
6 | B6 | 0.561 nM | 0.000709 s⁻¹
7 | B7 | 0.588 nM | 0.000693 s⁻¹
8 | B8 | 0.304 nM | 0.000592 s⁻¹
9 | B9 | 0.434 nM | 0.000377 s⁻¹
10 | B10 | 0.254 nM | 0.000518 s⁻¹
11 | B11 | 0.319 nM | 0.000415 s⁻¹
12 | B12 | 0.563 nM | 0.000566 s⁻¹
